Measured values as given in the supplement of paper PMC9170038.

Tested on: MS2 coat protein
Assay: apparent KD of MS2 coat protein; designed switch direction (-1 OFF switch, 1 ON switch): -1; higher = weaker reporter binding
Outline: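 The apparent KD reported per design is the median over clusters of curve fits to normalised cluster fluorescence. The RNA switches were transcribed on Illumina chips by stalled E. coli RNA polymerase. SNAP-549-labelled MS2 coat protein was titrated from 0.7 or 1.5 nM, doubling up to 3 µM, in Tris-HCl pH 7.5 buffer containing KCl, MgCl2, BSA, DTT, tRNA and Tween-20, with no input, 200 uM small-molecule ligand, or an oligonucleotide input.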

[1] = Eterna round: R95, input ligand: FMN 200 uM
[2] = Eterna round: R95, input ligand: microRNA oligo, concentration not stated
[3] = Eterna round: R95, input ligand: none
[4] = input ligand: microRNA oligo, concentration not stated

Row | Sequence | apparent KD of MS2 coat protein (input ligand: FMN 200 uM) [nM] | apparent KD of MS2 coat protein (input ligand: none) [nM] | apparent KD of MS2 coat protein [1] [nM] | apparent KD of MS2 coat protein [2] [nM] | apparent KD of MS2 coat protein [3] [nM] | apparent KD of MS2 coat protein [4] [nM]
1 | AAAUUGGUAGAGGAUAUUGUACAGGAAACGGUGCGAGAAGGUUGCACAUGAGGAUCACCCAUGUUUAGUUGCGA [EX6 #47] (Eterna round: R97, puzzle: Exclusion 6) | 27.2 | 32.4 | – | – | – | –
2 | GGUGAGCUAGGAUAUGCUUUGGGCUCGCUUUCCUUCGAUUUACUUGAGGAUCACCCAAGUAGAAGGAGCUUGCC [salish99_ex2_r4_035] (Eterna round: R97, puzzle: Exclusion 2) | 13.5 | 12.9 | – | – | – | –
3 | AGAAGUAGUAGCCGAUCCUACAUGAGGAUCACCCAUGUAGCUAGACGUGCACGCGAUGCUCGUCAGACUACCAGAUG [salish99_TOv1_r3_031] (puzzle: Sensor v3, turn-off variant 1) | – | – | 131 | 120 | 155 | –
4 | UGGUCACAUGAGGAUCACCCAUGUCAGGAUAUCGUCACUGGAGCUUCGGCUCCAGUGACGAGAAGGGAUAUAAU [E1/9-A1] (Eterna round: R97, puzzle: Exclusion 1) | 191 | 57.8 | – | – | – | –
5 | GCGGUACAUGAGGAUCACCCAUGUCAGGAUAUCCGCUGUUUGUUAAUAAACAAGCGGUGGAGAAGGGACUUCGC [-26.2, -25.5 kcal, 27% A] (Eterna round: R97, puzzle: Exclusion 1) | 35.2 | 31.5 | – | – | – | –
6 | CUCCUACAUGAGGAUCACCCAUGUCAGGAUAUCUCAGUGGUACCUAAAUUUACCACCCAGAGAAGGGACGUGCA [Diradireer] (puzzle: Exclusion 1) | – | – | – | 11.9 | – | –
7 | GUCAGCUCGUGAGGAUAUGCACAUGAGGAUCACCCAUGUAAGAUCAAGCUGCUUCGGCAGCAAGUGCAGAAGGCACGAGCUGAU [ENG2/9-A3] (Eterna round: R96, puzzle: Exclusion NG 2) | 148 | 210 | – | – | – | 179
8 | UAAACAAGCUUAAGAUCCUACAUGAGGAUCACCCAUGUGCUCGUCUUAUAAGGUACUGUGACGAAAGUCACGGUACC [JL TOV1 3.06] (Eterna round: R97, puzzle: Sensor, turn-off variant 1) | 226 | 194 | – | – | – | –
9 | UUCCUCUUUGUGAGGAUAUCGUCCGUUUUUUGUUACGAGAAGGCACAUGAGGAUCACCCAUGUUUUUUGUUUUU [JR_BMOE4_Sub076] (puzzle: Brourd's mod of Exclusion 4) | – | – | – | 21.4 | – | –
10 | UCGCGAAGAGGAUAUACAUAGAAAUAGAUUCAUGUAAAACUACAUGAGGAUCACCCAUGUAGAAGGCUUUGCGU [Mat - Exclusion 2 - JL Mod - D60] (Eterna round: R97, puzzle: Exclusion 2) | 108 | 17 | – | – | – | –
11 | CUAGCGAGUGUAGGAUAUCGGACUGUUUCAGUCUGAGAAGGACAUGAGGAUCACCCAUGUAUUGCUGCGUGAGUAGCACGCUAG [JL ENG1 3.99] (Eterna round: R96, puzzle: Exclusion NG 1) | 32.4 | 19.5 | – | – | – | 15.6
12 | AAAAAACAUGAGGAUCACCCAUGUGAGGAUAUGAUGCGAAUAAAGAAAGAAGAAAGCAUCAGAAGGCACAUAUG [Mod of Disincluded 3 (little more stable fmn state)] (Eterna round: R96, puzzle: Exclusion 1) | – | – | – | – | – | 66.6
13 | CCCACAAGCUUUUUGCUCGACAUGAGGAUCACCCAUGUUGAAUGGGUUAUGUGUGUGUGAUACAUAUAUAUGGUCCU [-25.6, -50.5 kcal, A 23%] (Eterna round: R97, puzzle: Sensor, turn-off variant 1) | 201 | 207 | – | – | – | –
14 | GAGUGACAUGAGGAUCACCCAUGUGAGGAUAUCGGACGGACCAAAUUAACAAUAAAUGCGAGAAGGCACAUCGG [Exclusion 1 V13] (puzzle: Exclusion 1) | – | – | – | 55.4 | – | –
15 | AGAUCCUGAGUCAGGAUAUAGAGGCGGUAGCCUGGCUAGAAGGGACAUGAGGAUCACCCAUGUGGGUUCUUGCC [Gecela] (puzzle: Brourd's mod of Exclusion 4) | – | – | – | 12.7 | – | –
16 | AAAGAACAUGAGGAUCACCCAUGUGAGGAUAUGUAAGGAUUGUGGAGAAGAAGAGAGAACAGAAGGCACGGAGG [JR_Exclu1_Sub068] (puzzle: Exclusion 1) | – | – | 36.8 | 32.1 | 44.9 | –
17 | CGUCAGUCAGGAUAUACUUACGUAGACAUGAGGAUCACCCAUGUGACGUGGGACUGGUGAGUAGAAGGGACGAACA [EX5 #76] (Eterna round: R97, puzzle: Exclusion 5) | 27.3 | 18.1 | – | – | – | –
18 | UUUAAUUUUUUUUUUUUACAAGCUUUUUGCUCGUCUUAUACAUGAGGAUCACCCAUGUGAAUGGAAGAUAAAUUAUC [JMF 8] (puzzle: Sensor v3, turn-off variant 2) | – | – | 17.8 | 16.3 | 18.6 | –

Row | Sequence | apparent KD of MS2 coat protein (input ligand: FMN 200 uM) [nM] | apparent KD of MS2 coat protein (input ligand: none) [nM] | apparent KD of MS2 coat protein [1] [nM] | apparent KD of MS2 coat protein [2] [nM] | apparent KD of MS2 coat protein [3] [nM] | apparent KD of MS2 coat protein [4] [nM]
19 | ACAUGUUAUCCAUGAUAUCACAUGAGGAUCACCCAUGUUAUGGCGAUUUUGAGGUGUAAGUUUUUUGCUCGUCUUAU [JR_STOV1_Sub058] (Eterna round: R97, puzzle: Sensor, turn-off variant 1) | 51.5 | 61.1 | – | – | – | –
20 | CUUUUGGCAGGAUAUGCUUUUUUUGACAUGAGGAUCACCCAUGUGAUGCAGUUUGGGUUUGCAGAAGGGCCUGAGU [JR_E5_Sub035] (puzzle: Exclusion 5) | – | – | – | 101 | – | –
21 | UUUAUGUGAGGAUAUAGUACUCCUUCUAUUAUUUUUGAGUACUAGAAGGCACAUGAGGAUCACCCAUGUAGUAC [Ex4 - 3 - 38] (puzzle: Exclusion 4) | – | – | – | 22.1 | – | –
22 | ACAUGAGGAUCACCCAUGUCCGGCUGGUCCGUCUCGGCUGUCGAGGAUAUGGCUCGGUGUCCGCGCUAGAAGGCGGGAGCCGGA [Aenatbe mod 76] (Eterna round: R96, puzzle: Exclusion NG 3) | 31.6 | 45.4 | – | – | – | 27.2
23 | AGUAACUAUCACGAAAGUGAUAGUUACAAUAGCAGUGAAACAUGAGGAUCACCCAUGUCCUCAUUUGCUCGUCUUAU [Sensor 3 - 23] (puzzle: Sensor v3, turn-off variant 2) | – | – | 49.6 | 566 | 61.2 | –
24 | GAGAAGGUAGGAUAUACGAAUAAAUAGGGUAGGAAGAAGACACAUGAGGAUCACCCAUGUAGAAGGACCAAGAU [Mat - Exclusion 2 - Mod of my Tesla design - D35] (puzzle: Exclusion 2) | – | – | – | 18.1 | – | –
25 | CCGCAAAAUGAGGAUAUCGUAUCGGAUACGAUACGAGAAGGCGUAACAUGAGGAUCACCCAUGUGUCCUAGCGG [Fiskers Ex 6 - 35] (puzzle: Exclusion 6) | – | – | – | 13.5 | – | –
26 | AUCAGCUCGUCAGGAUAUAUAUACAUGAGGAUCACCCAUGUAAGAUCAGGCUUCGGCCAAUGUAUAUAGAAGGGACGAGCUGAU [ENG2/11-B3] (Eterna round: R96, puzzle: Exclusion NG 2) | 1550 | 771 | – | – | – | 371
27 | UCAUAACAUGAGGAUCACCCAUGUGAGGAUAUGAUACUAUGUACUUCGGUACAUAGUAUCAGAAGGCGCAUACU [Brourd's Ex1-3: 11 (nt 68 G)] (puzzle: Exclusion 1) | – | – | 115 | 55.2 | 49.1 | –
28 | CACUGCAGGUUAGGAUAUGGACAACAACAUGAGGAUCACCCAUGUAUGUAUGAACAUGUUGAUCACCAGAAGGAACACAUCAGU [Exclusion NG 2 S2] (Eterna round: R96, puzzle: Exclusion NG 2) | 12.2 | 11.8 | – | – | – | 9.35
29 | UCAUGGAAGCAGGAUAUGCUUGUUUAAUUGUUUGCAGAAGGGCUAACAUGAGGAUCACCCAUGUGAGAGGUCUA [JR_E6_Sub064] (puzzle: Exclusion 6) | – | – | 20.5 | 33.8 | 36.7 | –
30 | CGAGAGCGAGGAUAUACACAACUCCUCACUGUCAAGAAAGGACAUGAGGAUCACCCAUGUAGAAGGUGCAAAAC [Quries] (puzzle: Exclusion 2) | – | – | 215 | 125 | 120 | –
31 | GAGUGCUGAGGAUAUACAUGAGGAUCACCCAUGUGCUUCAGCUAGGAGACUAGCAUCCGUAGAAGGCAGUACUC [Mod of lroppy 24 - Jieux - Exclusion 3] (Eterna round: R97, puzzle: Exclusion 3) | 37.5 | 14.3 | – | – | – | –
32 | UUAACAUGCUGGUGAUCAUACAUGAGGAUCACCCAUGUAACAAGCUUUUUGCUCGUCUUAUAAGAUUACUAGUAUGU [Stov1/10-A1] (Eterna round: R97, puzzle: Sensor, turn-off variant 1) | 24.2 | 26.4 | – | – | – | –
33 | UGCAUGCUAGGAUAUACGAAACAUUAGGGUUCUUUGUAUGAACAUGAGGAUCACCCAUGUAGAAGGAGCGUGCU [Mod7 of JL-ex2-2.15 mat747 mod] (puzzle: Exclusion 2) | – | – | – | 92.4 | – | –
34 | CCAUGGGAGCGAGGAUAUAGACCAUGGGAAGAGCUAGAAGGCGCUGACAUGAGGAUCACCCAUGUGUUCAUGAGGAGGUGGACA (Eterna round: R96, puzzle: Exclusion NG 1) | 215 | 113 | – | – | – | 88.7
35 | CUAGAUCUUCGGAUCUAGUACAUGAGGAUCACCCAUGUGACGAGUUUAUGGGUGAACAAGCUUUUUGCUCGUCUUAU [Sensor v3 - Turn-off variant 1 - 7] (puzzle: Sensor v3, turn-off variant 1) | – | – | 71.4 | 16.5 | 84.8 | –
